Reference: publication PMC3477312, “Characterization of Vibrio cholerae Hfq Provides Novel Insights into the Role of the Hfq C-Terminal Region” (Journal of Molecular Biology, 2012)

B1: Vibrio cholerae Hfq (natural protein)
chain: MAKGQSLQDPFLNALRRERIPVSIYLVNGIKLQGQIESFDQFVILLKNTVNQMVYKHAISTVVPARPVSHHSGDRPASDRPAEKSEE
notes: also called VcHfq; full-length VcHfq
B2: VcHfq72 (domain or fragment)
chain: MAKGQSLQDPFLNALRRERIPVSIYLVNGIKLQGQIESFDQFVILLKNTVNQMVYKHAISTVVPARPVSHHS
notes: also called VcHfq NTD; NTD alone of VcHfq

Assays:
[1] = target: VcNTDEcCTR (Vibrio cholerae | Escherichia coli) (UniProt Q9KV11); assay: SDS-PAGE stability assay; 1 ug protein in loading buffer with 1% SDS heated at 95 °C for 0 to 300 s, 10% SDS-PAGE, hexamer and monomer bands quantified; hexamer to monomers
SEC = target: the molecule itself; assay: SEC
[2] = target: the molecule itself; assay: SDS-PAGE stability assay; 1 ug protein in loading buffer with 1% SDS heated at 95 °C for 0 to 300 s, 10% SDS-PAGE, hexamer and monomer bands quantified; hexamer to monomers

Molecule	half-life of hexamer in 1% SDS at 95 °C [1] [s]	stoichiometry N (SEC)	half-life of hexamer in 1% SDS at 95 °C [2] [s]
VcNTDEcCTR (from UniProt Q9KV11 1-72; P0A6X3 73-102)	39.2		
B1		6	33.2 ± 1.3
B2			32.1 ± 1.9
